# US20160137746A1, “METHODS FOR TREATING HIGH CARDIOVASCULAR RISK PATIENTS WITH HYPERCHOLESTEROLEMIA” (Sanofi Biotechnology, priority 2014, published 2016)
# Test system: high cardiovascular risk patients with hypercholesterolemia
# Assay: ODYSSEY LONG TERM: long-term safety and tolerability
# [1] = alirocumab patients with two consecutive LDL-C <25 mg/dL (n = 562), pre-specified analysis
# [2] = all alirocumab patients (n = 1550), pre-specified analysis
# Experimental: Safety parameters (adverse events [including adjudicated cardiovascular events], laboratory data, vital signs, and ECG) were assessed throughout the study.
# Safety endpoints assessed in this trial were: cardiovascular events; allergic events; local tolerability at injection site; other adverse events (including hemolytic anemia); laboratory tests: urinalysis, hematology (red blood cell count, red blood cell distribution width (RDW), reticulocyte count, hemoglobin, hematocrit, platelets, white blood cell count with differential blood count), standard chemistry (sodium, potassium, chloride, bicarbonate, calcium, phosphorous, urea nitrogen, creatinine, uric acid, total protein, albumin, LDH, γ Glutamyl Transferase [γGT]), Vitamin E (alpha tocopherol) and other Fat Soluble Vitamins, cortisol (and reflexive ACTH levels, as needed, followed by ACTH stimulation test, as needed), Gonadal Hormone Assessments, Hepatitis C antibody, liver panel (ALT, AST, ALP, and total bilirubin), and CPK; vital signs including heart rate and blood pressure; and 12-lead ECG.
# The safety population included all randomized patients who received at least one dose or part of a dose of the double-blind IMP.
# Safety analyses were descriptive, performed on the safety population according to treatment actually received. The safety analysis focused on the TEAE period defined as the time from the first dose of double-blind injection up to 70 days after the last double-blind injection. TEAE which developed, worsened or became serious or PCSA occurring after the patient's first injection in the open-label extension study (LTS13643) were not considered in the TEAE period. TEAE period was truncated at the common study cut-off date.
substance,measurement,setting,value
"Alirocumab: human anti-PCSK9 antibody; HCVR SEQ ID NO:1, LCVR SEQ ID NO:6; CDRs SEQ ID NOs 2/3/4/7/8/10","TEAEs by System-Organ-Class: Investigations (lab parameters), % of patients",[1],3.7% (21)
same,"TEAEs by System-Organ-Class: Metabolism and nutrition disorders, % of patients",[1],8.0% (45)
same,"TEAEs by System-Organ-Class: Musculoskeletal and connective tissue disorders, % of patients",[1],22.6% (127)
same,"TEAEs by System-Organ-Class: Neoplasms, benign, malignant (incl cysts/polyps), % of patients",[1],3.0% (17)
same,"TEAEs by System-Organ-Class: Nervous system disorders, % of patients",[1],11.2% (63)
same,"TEAEs by System-Organ-Class: Psychiatric disorders, % of patients",[1],4.3% (24)
same,"TEAEs by System-Organ-Class: Renal and urinary disorders, % of patients",[1],3.6% (20)
same,"TEAEs by System-Organ-Class: Reproductive system and breast disorders, % of patients",[1],2.0% (11)
same,"TEAEs by System-Organ-Class: Respiratory, thoracic, and mediastinal disorders, % of patients",[1],7.7% (43)
same,"TEAEs by System-Organ-Class: Skin and subcutaneous tissue disorders, % of patients",[1],6.9% (39)
same,"TEAEs by System-Organ-Class: Vascular disorders, % of patients",[1],5.0% (28)
same,"TEAEs leading to discontinuation, % of patients",[1],3.6% (20)
same,"TEAEs, % of patients",[1],71.9% (404)
same,"Treatment-emergent SAEs, % of patients",[1],14.6% (82)
same,"AE of special interest: All adjudicated cardiovascular events, % of patients",[2],4.0% (62)
same,"AE of special interest: General allergic reaction events, % of patients",[2],9.0% (140)
same,"AE of special interest: Haemolytic anaemia, % (n) of patients",[2],0
same,"AE of special interest: Neurocognitive disorders, % of patients",[2],1.2% (18)
same,"AE of special interest: Neurological events, % of patients",[2],4.2% (65)
same,"AE of special interest: Ophthalmological events, % of patients",[2],2.5% (38)
same,"AE of special interest: Treament-emergent local injection site reactions, % of patients",[2],5.8% (90)
same,"Neurocognitive AE: Amnesia, % of patients",[2],0.3% (5)
same,"Neurocognitive AE: Any neurocognitive disorder, % of patients",[2],1.2% (18)
same,"Neurocognitive AE: Confusion postoperative, % of patients",[2],<0.1% (1)
same,"Neurocognitive AE: Confusional state, % of patients",[2],0.3% (4)
same,"Neurocognitive AE: Dementia, % of patients",[2],<0.1% (1)
same,"Neurocognitive AE: Disorientation, % of patients",[2],<0.1% (1)
same,"Neurocognitive AE: Disturbance in attention, % of patients",[2],<0.1% (1)
same,"Neurocognitive AE: Frontotemporal dementia, % of patients",[2],<0.1% (1)
same,"Neurocognitive AE: Memory impairment, % of patients",[2],0.3% (5)
same,"Neurocognitive AE: Transient global amnesia, % of patients",[2],<0.1% (1)
same,"TEAE ALT increase, % of patients",[2],1.1%
same,"TEAE AST increase, % of patients",[2],0.2%
same,"TEAE Angina pectoris, % of patients",[2],2.1% (32)
same,"TEAE Arthralgia, % of patients",[2],4.5% (70)
same,"TEAE Atrial fibrillation, % of patients",[2],1.4% (22)
same,"TEAE Back pain, % of patients",[2],4.7% (73)
same,"TEAE Bronchitis, % of patients",[2],5.2% (80)
same,"TEAE CPK increase, % of patients",[2],0.5%
same,"TEAE Cellulitis, % of patients",[2],1.4% (22)
same,"TEAE Confusion, % of patients",[2],2.3% (35)
same,"TEAE Constipation, % of patients",[2],1.9% (30)
same,"TEAE Cough, % of patients",[2],3.2% (49)
same,"TEAE Depression, % of patients",[2],1.8% (28)
same,"TEAE Diabetes in patients with history of diabetes (Company MedDRA Query ""diabetes""), number as printed",[2],48
same,"TEAE Diabetes in patients with no history of diabetes (Company MedDRA Query ""diabetes""), number as printed",[2],19
same,"TEAE Diarrhea, % of patients",[2],5.3% (82)
same,"TEAE Dizziness, % of patients",[2],2.5% (38)
same,"TEAE Fall, % of patients",[2],2.8% (43)
same,"TEAE Fatigue, % of patients",[2],3.0% (47)
same,"TEAE Gastoenteritis, % of patients",[2],2.4% (37)
same,"TEAE Headache, % of patients",[2],4.8% (74)
same,"TEAE Hypertension, % of patients",[2],3.5% (54)
same,"TEAE Influenza, % of patients",[2],5.4% (84)
same,"TEAE Injection site reaction, % of patients",[2],5.7% (89)
same,"TEAE Muscle spasms, % of patients",[2],3.7% (58)
same,"TEAE Musculoskeletal pain, % of patients",[2],2.3% (36)
same,"TEAE Myalgia, % of patients",[2],4.9% (76)
same,"TEAE Nasopharyngitis, % of patients",[2],12.6% (196)
same,"TEAE Nausea, % of patients",[2],2.4% (37)
same,"TEAE Non-cardiac chest pain, % of patients",[2],1.8% (28)
same,"TEAE Osteoarthritis, % of patients",[2],2.3% (35)
same,"TEAE Pain in extremity, % of patients",[2],3.0% (46)
same,"TEAE Rhinitis, % of patients",[2],1.4% (22)
same,"TEAE Sinusitis, % of patients",[2],2.6% (40)
same,"TEAE Type-2 diabetes mellitus, % of patients",[2],1.7% (27)
same,"TEAE leading to death, % of patients",[2],0.5% (7)
same,"TEAEs by System-Organ-Class: Blood and lymphatic system disorders, % of patients",[2],2.4% (37)
same,"TEAEs by System-Organ-Class: Cardiac disorders, % of patients",[2],9.1% (141)
same,"TEAEs by System-Organ-Class: Ear and labyrinth disorders, % of patients",[2],2.0% (31)
same,"TEAEs by System-Organ-Class: Eye disorders, % of patients",[2],6.5% (100)
same,"TEAEs by System-Organ-Class: Gastrointestinal disorders, % of patients",[2],18.6% (288)
same,"TEAEs by System-Organ-Class: General disorders and administration site conditions, % of patients",[2],15.4% (238)
same,"TEAEs by System-Organ-Class: Injury, poisoning, and procedural complications, % of patients",[2],13.4% (207)
same,"TEAEs by System-Organ-Class: Investigations (lab parameters), % of patients",[2],6.1% (95)
same,"TEAEs by System-Organ-Class: Metabolism and nutrition disorders, % of patients",[2],9.1% (141)
same,"TEAEs by System-Organ-Class: Musculoskeletal and connective tissue disorders, % of patients",[2],27.2% (422)
same,"TEAEs by System-Organ-Class: Neoplasms, benign, malignant (incl cysts/polyps), % of patients",[2],2.5% (38)
same,"TEAEs by System-Organ-Class: Nervous system disorders, % of patients",[2],17.0% (264)
same,"TEAEs by System-Organ-Class: Psychiatric disorders, % of patients",[2],5.9% (91)
same,"TEAEs by System-Organ-Class: Renal and urinary disorders, % of patients",[2],4.6% (72)
same,"TEAEs by System-Organ-Class: Reproductive system and breast disorders, % of patients",[2],2.5% (38)
same,"TEAEs by System-Organ-Class: Respiratory, thoracic, and mediastinal disorders, % of patients",[2],11.0% (171)
same,"TEAEs by System-Organ-Class: Skin and subcutaneous tissue disorders, % of patients",[2],9.1% (141)
same,"TEAEs by System-Organ-Class: Vascular disorders, % of patients",[2],7.9% (122)
same,"TEAEs leading to discontinuation, % of patients",[2],6.2% (96)
same,"TEAEs, % of patients",[2],78.6% (1218)
same,"Treatment-emergent SAEs, % of patients",[2],16.5% (255)
same,Injection-site reactions,final analysis,5.9%
same,Myalgia,final analysis,5.4%
same,Neurocognitive events,final analysis,1.2%
same,Ophthalmological events,final analysis,2.9%
same,Patients with two consecutive calculated LDL cholesterol levels of less than 25 mg/dL (575 patients),final analysis,38%
same,Treatment-emergent adverse events,final analysis,81%
same,Treatment-emergent adverse events leading to study-drug discontinuation,final analysis,7.2%
same,"Alanine aminotransferase > 3 × ULN, % of patients",pre-specified analysis,1.6%
same,"Alanine aminotransferase > 3 × ULN, n/N of patients",pre-specified analysis,25/1532
same,"Aspartate aminiotransferase >3 × ULN, % of patients",pre-specified analysis,1.2%
same,"Aspartate aminiotransferase >3 × ULN, n/N of patients",pre-specified analysis,19/1532
same,"Creatine kinase > 3 × ULN, % of patients",pre-specified analysis,3.3%
same,"Creatine kinase > 3 × ULN, n/N of patients",pre-specified analysis,50/1507
same,Deaths reported during the study,pre-specified analysis,11 (0.7%) n (%)
same,Diarrhea (TEAE preferred term),pre-specified analysis,5.3%
same,Headache (TEAE preferred term),pre-specified analysis,4.8%
same,Hemolytic anaemia,pre-specified analysis,No case
same,Influenza (TEAE preferred term),pre-specified analysis,5.4%
same,Injection site reaction (TEAE preferred term),pre-specified analysis,5.7%
same,Nasopharyngitis (TEAE preferred term),pre-specified analysis,12.6%
same,Neurocognitive disorders,pre-specified analysis,18 (1.2%) n (%)
same,"Patients with LDL-C <25 mg/dL in two or more consecutive periods, share of population treated with alirocumab (562 out of 1550)",pre-specified analysis,36.3%
same,Patients with impaired glucose control at baseline defined as diabetic in the TEAE period,pre-specified analysis,36 (6.3%) n (%)
same,Patients with two consecutive calculated LDL-C values <25 mg/dL (<0.65 mmo/L),pre-specified analysis,562 (37.4%) n (%)
same,SOC gastrointestinal disorders,pre-specified analysis,18.6%
same,SOC general disorders and administration site conditions,pre-specified analysis,15.4%
same,"SOC injury, poisoning and procedural complications",pre-specified analysis,13.4%
same,SOC musculoskeletal and connective tissue disorders,pre-specified analysis,27.2%
same,SOC nervous system disorders,pre-specified analysis,17.0%
same,"SOC respiratory, thoracic and mediastinal disorders",pre-specified analysis,11.0%
same,Safety in patients with two consecutive calculated LDL-C <25 mg/dL,pre-specified analysis,No particular safety concern
same,TEAE leading to death,pre-specified analysis,7 (0.5%) n (%)
same,Time to first injection site reaction,pre-specified analysis,57 days
same,Treatment-emergent local injection site reaction,pre-specified analysis,90 (5.8%) n (%)
